Biological target: human V1a receptor (human) (UniProt P37288)
Assay: cell-based or functional assay

human V1a receptor (human), sequence (P37288 whole entry): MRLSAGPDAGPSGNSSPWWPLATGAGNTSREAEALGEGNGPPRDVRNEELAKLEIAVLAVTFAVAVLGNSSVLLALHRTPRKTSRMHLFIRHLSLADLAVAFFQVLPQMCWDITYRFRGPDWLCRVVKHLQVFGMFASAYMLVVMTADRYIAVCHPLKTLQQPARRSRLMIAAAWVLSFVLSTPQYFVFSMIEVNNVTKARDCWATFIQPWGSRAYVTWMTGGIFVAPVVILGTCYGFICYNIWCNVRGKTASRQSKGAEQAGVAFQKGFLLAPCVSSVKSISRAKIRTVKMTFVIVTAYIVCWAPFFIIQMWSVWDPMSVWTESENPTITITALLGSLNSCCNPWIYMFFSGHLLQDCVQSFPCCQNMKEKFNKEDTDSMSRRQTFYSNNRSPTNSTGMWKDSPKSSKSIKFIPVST

Q: Which Estimated V1a EC50 (calcium flux) does the source give for “Lysine vasopressin (LVP) (from UniProt P01183 20-28) (peptide)” here?
A: 1.65 nM

Q: What about the V1a Highest agonist effect (% of AVP) of the same substance?
A: 92.1 % of AVP
